Measurements taken from patent US20210253639A1 (REGENTS OF THE UNIVERSITY OF MICHIGAN, published 2021).
Blank lines part the entries; values can stand above or below the binder they belong to. Ends that are not written are not given here. E3 = triethyleneglycol (PEG3) linker; Cy5.5 = cyanine 5.5 fluorophore

Assays:
[1] = target: EGFR and ErbB2 together on the surface of cells that express both (OE33, SKBr3) (human) (UniProt P00533); experiment: flow cytometry on OE33 cells, apparent dissociation constant
[2] = target: EGFR and ErbB2 together on the surface of cells that express both (OE33, SKBr3) (human) (UniProt P00533); experiment: flow cytometry on OE33 cells, against QRH*-Cy5.5 and KSP*-Cy5.5
[3] = target: EGFR and ErbB2 together on the surface of cells that express both (OE33, SKBr3) (human) (UniProt P00533); experiment: confocal microscopy on OE33 cells, against QRH*-Cy5.5 and KSP*-Cy5.5
[4] = target: EGFR and ErbB2 together on the surface of cells that express both (OE33, SKBr3) (human) (UniProt P00533); experiment: flow cytometry time course on OE33 cells, 1 µM peptide, first-order fit
[5] = target: T1, epidermal receptor growth factor 2 (ErbB2) (human, UniProt P04626 23-1255); experiment: flow cytometry on OE33 cells (carry EGFR and ErbB2), apparent dissociation constant
T1 construct: whole, on cells; Receptor on human cancer cell lines or xenograft tumour cells; also called HER2; HER2/neu

[6] = target: T1, epidermal receptor growth factor 2 …; experiment: confocal microscopy of FITC-labeled peptides on Flo1-HER2 cells
Procedure: A FITC label was attached to each peptide, and binding to Flo1-HER2 and QhTERT cells (control) was imaged using confocal microscopy. […] KSPNPRF (SEQ ID NO: 2) was selected based on the highest mean fluorescence intensity with binding to Flo1-HER2. From the model, this peptide was determined to bind to HER2 domain 3. The peptide was then labeled for deep tissue imaging with a Cy5.5 fluorophore via a GGGSK (SEQ ID NO: 3) linker on the C-terminus, hereafter KSP*-Cy5.5. Cy5.5 was chosen for high quantum yield and photostability. The linker prevents steric hindrance by spatially separating the fluorophore from the peptide. A scrambled sequence PPSNFKR (SEQ ID NO: 4) was developed for use as control by altering the conformationally rigid spacer PNP and moving both hydrophobic and hydrophilic amino acids at the C-terminus. This control peptide also was linked to Cy5.5 via GGGSK (SEQ ID NO: 3), hereafter PPS*-Cy5.5. […] The fluorescence emission peak occurs at 708 nm in the NIR spectrum.

[7] = target: T2, epidermal growth factor receptor (EGFR) (human, UniProt P00533 25-1210); experiment: flow cytometry on OE33 cells (carry EGFR and ErbB2), apparent dissociation constant
T2 construct: whole, on cells; Endogenous receptor on human cancer cell lines or xenograft tumour cells; also called ErbB-1; HER1

B2: KSP*-Cy5.5 (peptide)
peptide: KSPNPRFGGGSK(Cy5.5)-NH2
notes: also called KSP*-GGGSK-Cy5.5; ErbB2 monomer peptide
Kd [5]: 54 nM

B3: QRH*-Cy5.5 (peptide)
peptide: QRHKPREGGGSK(Cy5.5)-NH2
notes: also called QRH*-GGGSK-Cy5.5; EGFR monomer peptide
Kd [7]: 98 nM

Further lines, results first:

Kd [1]: 23 nM
fold improved binding affinity compared with either monomer alone [2]: 2 fold
fold greater fluorescence intensity compared with either monomer alone [3]: 3 fold
apparent association time constant Ka [4]: 0.22 min⁻¹
association time (printed in brackets after Ka) [4]: 4.5 min
B1: QRH*-KSP*-E3-Cy5.5 (peptide)
peptide 1: QRHKPRE-E3
peptide 2: KSPNPRF-E3
modifications: not fully specified (bridges); also: heterodimer: both C-termini joined via E3 to alpha and epsilon amines of a Lys, followed by Lys carrying Cy5.5

binding result [6]: binds
Binder: KSPNPRF (also: FITC label, attachment not given here) [KSPNPRF with a FITC label]
